Results as given in patent US20220033904A1 (CHILDREN S MEDICAL CENTER, published 2022).
Each block holds one binder with its values, some of them ahead of it.

What was measured:
LRP6 = target: T1, LRP6 (human, UniProt O75581 20-1613); test: co-IP, immunoblot (FIG. 3F)
T1 construct: whole, on cells; The legend says 'endogenous FZD5 but not LRP6'

USP8N = target: T2, USP8N (UniProt P40818 1-714, limits assumed); test: co-IP, immunoblot (FIG. 5C)
T2 construct: domain: USP8 N terminus; also called USP8 N terminus; N-terminal half of USP8
T2 sequence (looked up): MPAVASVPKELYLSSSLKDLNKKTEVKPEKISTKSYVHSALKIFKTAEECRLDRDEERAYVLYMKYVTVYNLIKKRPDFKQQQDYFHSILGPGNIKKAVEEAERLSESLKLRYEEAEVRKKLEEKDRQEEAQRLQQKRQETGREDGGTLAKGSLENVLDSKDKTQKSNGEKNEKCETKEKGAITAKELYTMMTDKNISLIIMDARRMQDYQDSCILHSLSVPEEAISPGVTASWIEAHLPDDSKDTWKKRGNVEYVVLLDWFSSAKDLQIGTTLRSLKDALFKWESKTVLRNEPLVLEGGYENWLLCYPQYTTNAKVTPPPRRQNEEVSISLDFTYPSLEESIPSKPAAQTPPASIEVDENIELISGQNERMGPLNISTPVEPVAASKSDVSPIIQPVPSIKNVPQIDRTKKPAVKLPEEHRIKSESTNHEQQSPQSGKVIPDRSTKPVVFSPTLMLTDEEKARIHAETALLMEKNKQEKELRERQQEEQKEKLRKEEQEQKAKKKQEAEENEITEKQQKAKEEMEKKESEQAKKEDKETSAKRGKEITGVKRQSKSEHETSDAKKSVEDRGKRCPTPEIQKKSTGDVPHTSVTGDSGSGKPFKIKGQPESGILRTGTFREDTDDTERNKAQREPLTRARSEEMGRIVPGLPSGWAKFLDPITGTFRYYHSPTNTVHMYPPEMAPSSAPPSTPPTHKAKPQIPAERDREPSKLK

FZD5 = target: T3, FZD5
T3 chain: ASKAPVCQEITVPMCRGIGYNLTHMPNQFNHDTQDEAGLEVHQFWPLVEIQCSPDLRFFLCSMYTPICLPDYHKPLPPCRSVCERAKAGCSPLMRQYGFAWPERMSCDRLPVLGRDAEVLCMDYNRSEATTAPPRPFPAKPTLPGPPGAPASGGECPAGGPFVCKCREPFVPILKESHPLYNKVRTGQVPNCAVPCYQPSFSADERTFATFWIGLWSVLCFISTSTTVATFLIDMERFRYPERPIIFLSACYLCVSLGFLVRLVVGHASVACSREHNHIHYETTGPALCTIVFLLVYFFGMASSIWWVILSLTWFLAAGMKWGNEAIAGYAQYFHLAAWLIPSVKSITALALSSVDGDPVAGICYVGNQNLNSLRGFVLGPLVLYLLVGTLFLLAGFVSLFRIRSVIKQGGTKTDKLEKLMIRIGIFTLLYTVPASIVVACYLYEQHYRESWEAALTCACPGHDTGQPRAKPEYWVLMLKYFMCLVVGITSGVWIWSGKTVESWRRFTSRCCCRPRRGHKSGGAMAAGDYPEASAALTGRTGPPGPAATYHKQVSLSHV

T1 sequence (O75581 20-1613): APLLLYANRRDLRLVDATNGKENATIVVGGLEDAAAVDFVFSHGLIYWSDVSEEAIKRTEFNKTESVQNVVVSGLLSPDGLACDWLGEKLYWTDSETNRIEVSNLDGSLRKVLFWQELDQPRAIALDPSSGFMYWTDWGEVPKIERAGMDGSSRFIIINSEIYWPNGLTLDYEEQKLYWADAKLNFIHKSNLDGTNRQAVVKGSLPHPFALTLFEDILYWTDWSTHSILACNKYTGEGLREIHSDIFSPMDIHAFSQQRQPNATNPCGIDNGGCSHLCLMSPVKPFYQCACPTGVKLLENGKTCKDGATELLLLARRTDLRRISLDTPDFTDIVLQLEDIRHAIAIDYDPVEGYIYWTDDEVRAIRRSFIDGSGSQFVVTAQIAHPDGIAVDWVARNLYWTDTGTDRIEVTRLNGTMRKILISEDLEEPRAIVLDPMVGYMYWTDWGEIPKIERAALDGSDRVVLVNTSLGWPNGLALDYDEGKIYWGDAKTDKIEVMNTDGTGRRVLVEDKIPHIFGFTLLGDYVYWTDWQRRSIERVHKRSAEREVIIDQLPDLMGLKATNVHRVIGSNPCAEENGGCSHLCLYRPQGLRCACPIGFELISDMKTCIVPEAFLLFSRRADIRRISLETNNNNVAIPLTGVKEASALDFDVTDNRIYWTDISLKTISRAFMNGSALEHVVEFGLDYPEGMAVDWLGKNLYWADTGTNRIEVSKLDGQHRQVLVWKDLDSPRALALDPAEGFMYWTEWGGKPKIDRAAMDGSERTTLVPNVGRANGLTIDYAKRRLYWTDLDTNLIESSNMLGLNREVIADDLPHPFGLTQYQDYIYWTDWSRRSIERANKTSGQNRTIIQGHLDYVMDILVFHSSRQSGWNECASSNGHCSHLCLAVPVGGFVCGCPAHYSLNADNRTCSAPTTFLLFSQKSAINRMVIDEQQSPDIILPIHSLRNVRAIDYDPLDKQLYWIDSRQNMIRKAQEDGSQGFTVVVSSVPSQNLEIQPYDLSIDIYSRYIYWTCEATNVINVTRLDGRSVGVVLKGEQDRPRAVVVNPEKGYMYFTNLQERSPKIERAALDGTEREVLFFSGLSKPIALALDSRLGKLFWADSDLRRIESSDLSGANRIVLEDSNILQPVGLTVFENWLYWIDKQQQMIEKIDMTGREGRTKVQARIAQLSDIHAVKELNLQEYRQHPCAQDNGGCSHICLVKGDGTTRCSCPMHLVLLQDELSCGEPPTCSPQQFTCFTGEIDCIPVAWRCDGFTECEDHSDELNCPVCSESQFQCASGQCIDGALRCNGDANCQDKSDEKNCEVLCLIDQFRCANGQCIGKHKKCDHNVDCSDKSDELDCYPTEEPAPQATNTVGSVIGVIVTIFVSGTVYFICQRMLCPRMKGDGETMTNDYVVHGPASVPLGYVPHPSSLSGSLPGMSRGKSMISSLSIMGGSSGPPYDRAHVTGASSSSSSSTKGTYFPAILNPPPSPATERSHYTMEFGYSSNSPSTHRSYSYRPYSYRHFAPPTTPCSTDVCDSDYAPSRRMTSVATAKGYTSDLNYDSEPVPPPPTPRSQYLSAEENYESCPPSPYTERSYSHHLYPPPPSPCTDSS

binding result (LRP6): no binding
B1: TMEM79-Flag (other)
chain: MTEPETLALLDMKEPETPEKSPPQALVLQSEEEGGTESPGTESLRVGSSVGSPIVREGPEDGPDSTISEAATLPWGTDPHPSAPLPDPPGWRDIEPEPLESEAPTKSEEPFKEDANLLPEKTVRAFVPIDLQCIERKPQEERILHRDAGPGELRNFLPARLSHPEPPERKWAEAVVRPPGRSCGGCGSCGGREALRAVASVVAALIFFPCLLYGAYAFLPFDAPRLPTMSSRLVYTLRCGVFATFPIVLGLLVYGLSLLCFSALRPFGEPRREVEIHRQYVAQSVQLFILYFFNLAVLSTYLPQDTLKLLPLLTGLFAISRLIYWLTFAVGRSFRGFGYGLTFLPLLAMLVWNLYYMFVVEPERMLTASESRLDYPDHARSVSDYRPRSWG
notes: Expressed in HEK293T cells; co-IP from lysates; not shown: Flag tag at the C-terminus

binding result (USP8N): no binding
B2: TMEM79 (other)
chain: MTEPETLALLDMKEPETPEKSPPQALVLQSEEEGGTESPGTESLRVGSSVGSPIVREGPEDGPDSTISEAATLPWGTDPHPSAPLPDPPGWRDIEPEPLESEAPTKSEEPFKEDANLLPEKTVRAFVPIDLQCIERKPQEERILHRDAGPGELRNFLPARLSHPEPPERKWAEAVVRPPGRSCGGCGSCGGREALRAVASVVAALIFFPCLLYGAYAFLPFDAPRLPTMSSRLVYTLRCGVFATFPIVLGLLVYGLSLLCFSALRPFGEPRREVEIHRQYVAQSVQLFILYFFNLAVLSTYLPQDTLKLLPLLTGLFAISRLIYWLTFAVGRSFRGFGYGLTFLPLLAMLVWNLYYMFVVEPERMLTASESRLDYPDHARSVSDYRPRSWG
notes: It was expressed in HEK293T cells and tested by co-IP from lysates; also called Mattrin; full length TMEM79; not shown: Myc or Flag tag or both at the C-terminus

B3: USP8C (protein)
chain: RSYSSPDITQAIQEEEKRKPTVTPTVNRENKPTCYPKAEISRLSASQIRNLNPVFGGSGPALTGLRNLGNTCYMNSILQCLCNAPHLADYFNRNCYQDDINRSNLLGHKGEVAEEFGIIMKALWTGQYRYISPKDFKITIGKINDQFAGYSQQDSQELLLFLMDGLHEDLNKADNRKRYKEENNDHLDDFKAAEHAWQKHKQLNESIIVALFQGQFKSTVQCLTCHKKSRTFEAFMYLSLPLASTSKCTLQDCLRLFSKEEKLTDNNRFYCSHCRARRDSLKKIEIWKLPPVLLVHLKRFSYDGRWKQKLQTSVDFPLENLDLSQYVIGPKNNLKKYNLFSVSNHYGGLDGGHYTAYCKNAARQRWFKFDDHEVSDISVSSVKSSAAYILFYTSLGPRVTDVAT
deubiquitination (ubiquitylation assay) (SMO): USP8C promoted deubiquitination of both FZD5 and SMO | deubiquitination (ubiquitylation assay) (FZD5): USP8C promoted deubiquitination of both FZD5 and SMO
